# Data taken from patent publication US9587002B2, “Sequence of nucleotides and peptides GSE 24.2 of dyskerin, which can induce telomerase activity, method for obtaining same, therapeutic compositions and applications thereof” (CONSEJO SUPERIOR DE INVESTIGACIONES CIENTIFICAS, priority 2005, dated 2017).
# B1: GSE 24.2: 165-pb cDNA fragment (nucleotides 268 to 433) of human dyskerin, SEQ ID NO1, encoding peptide SEQ ID NO2, expressed from pLNCX plasmid (nucleic acid, listed as Homo sapiens)
# DNA: GGTTTCATTAATCTTGACAAGCCCTCTAACCCCTCTTCCCATGAGGTGGTAGCCTGGATTCGACGGATACTTCGGGTGGAGAAGACAGGGCACAGTGGTACTCTGGATCCCAAGGTGACTGGTTGTTTAATCGTGTGCATAGAACGAGCCACTCGCTTGGTGAAG
# modifications: expressed from pLNCX plasmid; CDS (1)..(165) Sequence GSE 24.2
# Experiments:
# telomerase = telomerase (Homo sapiens, UniProt O14746); assay: Telomerase activity (TRAP) of 293T cell lines treated with cisplatin; format: cell-based; parameters: endogenous in cells; host or cells: 293T cells stably transfected with empty pLNCX or pLNCX 24.2; conditions: pre-treated 0.5 μg/ml 3 days, then 3 μg/ml cisplatin for 7 days
# Experimental: FIG. 5.—Telomerase activity of the 293T cell lines: pLNCX and 24.2 following treatment with cisplatin. The cells were seeded in 60-mm plates, pre-treated with 0.5 μg/ml of cisplatin for 3 days and subsequently treated with cisplatin at a dose of 3 μg/ml […]. The telomerase activity was measured by means of the Intergen TRAPeze assay. The experiment was performed 3 times, with similar results.
# To this end, an assay of telomerase activity was performed using the TRAP method with the pLNCX and pLNCX 24.2 cell lines (FIG. 5), pre-treating them for 3 days with 0.5 μg/ml of cisplatin; subsequently, they were treated with 3 μg/ml of cisplatin for 3 and 7 days. […]
# Telomerase activity assay based on the TRAP method Wright et al., 1995). The telomerase activity was measured using the TRAPeze telomerase detection kit (Intergen) in accordance with the instruction manual. The protein concentration of each extract was quantified by means of the Bradford method using the BIORAD reagent and after performing a PCR in accordance with the manual instructions; polyacrylamide gel electrophoresis was performed with the reaction products under non-denaturing conditions and, subsequently, it was stained with Ethidium bromide for 30 minutes.
# hTERT = assay: RT-PCR expression of hTERT in 293T cell lines after cisplatin; format: cell-based, human; conditions: pre-treated 0.5 μg/ml, treated 3 μg/ml cisplatin for 3 and 7 days
# Experimental: FIG. 7.—Expression levels of different genes related to telomerase in 293T cells: pLNCX and 24.2 following treatment with cisplatin. The cells were seeded in 60-mm plates, treated with 3 μg/ml of cDDP following pre-treatment with 0.5 μg/ml of cisplatin for 3 days and, subsequently, collected at the times specified in the figure (3 and 7 days). Following the extraction of RNA, RT-PCR was performed with oligos specific for hTERT, hTR and dyskerin in order to study the expression levels of the messenger RNAs. As a starting RNA control, oligos for the amplification of GAPDH were used.
# One of the explanations for the lower sensitivity of pLNCX 24.2 cells to cisplatin could be a change in the levels of some of the components of the telomerase complex. Therefore, the expression levels of different genes involved in the telomerase complex and the effect that cisplatin had on their expression were studied. To this end, the pLNCX and pLNCX 24.2 cells were pre-treated with 0.5 μg/ml and treated with 3 μg/ml of cisplatin for 3 and 7 days. Using oligos specific for hTR, hTERT and dyskerin, the expression levels of these genes and the effect of cisplatin on said expression were studied. […] This change in the sensitivity to cisplatin could explain, at least partially, the difference in sensitivity in the telomerase activity assays.
# Expression of genes by RT-PCR. […]
# telomerase, sequence (O14746 whole entry): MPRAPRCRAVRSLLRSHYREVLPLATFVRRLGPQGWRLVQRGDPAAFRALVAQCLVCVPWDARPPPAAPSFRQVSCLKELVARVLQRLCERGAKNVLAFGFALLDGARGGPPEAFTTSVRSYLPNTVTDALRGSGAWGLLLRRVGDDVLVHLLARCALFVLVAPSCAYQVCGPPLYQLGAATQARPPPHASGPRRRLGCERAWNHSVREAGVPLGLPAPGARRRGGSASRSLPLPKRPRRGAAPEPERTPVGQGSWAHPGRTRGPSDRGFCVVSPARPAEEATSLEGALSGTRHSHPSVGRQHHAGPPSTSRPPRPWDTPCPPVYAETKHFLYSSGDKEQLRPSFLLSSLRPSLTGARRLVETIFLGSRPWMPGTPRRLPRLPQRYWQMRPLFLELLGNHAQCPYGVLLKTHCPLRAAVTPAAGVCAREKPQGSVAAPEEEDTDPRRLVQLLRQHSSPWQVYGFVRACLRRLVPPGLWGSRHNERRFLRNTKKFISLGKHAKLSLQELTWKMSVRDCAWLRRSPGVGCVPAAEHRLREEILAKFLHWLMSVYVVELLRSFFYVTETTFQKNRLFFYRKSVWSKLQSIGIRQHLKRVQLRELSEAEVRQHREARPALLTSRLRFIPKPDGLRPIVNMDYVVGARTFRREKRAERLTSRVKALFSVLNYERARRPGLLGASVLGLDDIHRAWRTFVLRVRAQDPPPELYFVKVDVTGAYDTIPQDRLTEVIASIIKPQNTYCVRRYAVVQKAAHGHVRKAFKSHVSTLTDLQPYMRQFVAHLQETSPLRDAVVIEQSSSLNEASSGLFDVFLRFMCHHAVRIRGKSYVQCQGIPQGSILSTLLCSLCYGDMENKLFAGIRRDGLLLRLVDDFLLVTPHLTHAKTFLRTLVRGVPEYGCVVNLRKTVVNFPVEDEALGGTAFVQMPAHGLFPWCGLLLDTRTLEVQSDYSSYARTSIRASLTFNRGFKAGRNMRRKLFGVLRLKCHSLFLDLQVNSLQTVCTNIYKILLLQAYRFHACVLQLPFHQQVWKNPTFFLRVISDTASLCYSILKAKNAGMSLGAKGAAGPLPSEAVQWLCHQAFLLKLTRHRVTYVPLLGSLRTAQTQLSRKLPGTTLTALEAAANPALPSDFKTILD
# telomerase, sequence (O60832 2-514 partner limits assumed): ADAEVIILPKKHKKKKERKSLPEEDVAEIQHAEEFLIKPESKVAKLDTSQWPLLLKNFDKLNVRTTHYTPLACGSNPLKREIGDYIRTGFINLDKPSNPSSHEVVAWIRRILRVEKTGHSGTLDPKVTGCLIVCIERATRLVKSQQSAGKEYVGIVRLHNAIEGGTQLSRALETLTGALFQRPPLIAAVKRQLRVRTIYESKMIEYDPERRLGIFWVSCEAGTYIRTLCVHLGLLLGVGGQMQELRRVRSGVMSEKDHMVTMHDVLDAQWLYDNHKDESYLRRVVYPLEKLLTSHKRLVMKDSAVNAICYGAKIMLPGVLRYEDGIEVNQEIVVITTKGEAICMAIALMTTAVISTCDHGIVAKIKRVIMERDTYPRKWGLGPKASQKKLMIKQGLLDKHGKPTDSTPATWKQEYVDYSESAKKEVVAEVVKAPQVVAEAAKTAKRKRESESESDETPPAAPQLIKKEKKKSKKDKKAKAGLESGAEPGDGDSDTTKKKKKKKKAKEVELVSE
# telomerase, sequence (Q9NPE3 whole entry partner): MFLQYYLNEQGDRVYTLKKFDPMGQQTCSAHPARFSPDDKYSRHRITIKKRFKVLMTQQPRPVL
# telomerase, sequence (Q9NX24 whole entry partner): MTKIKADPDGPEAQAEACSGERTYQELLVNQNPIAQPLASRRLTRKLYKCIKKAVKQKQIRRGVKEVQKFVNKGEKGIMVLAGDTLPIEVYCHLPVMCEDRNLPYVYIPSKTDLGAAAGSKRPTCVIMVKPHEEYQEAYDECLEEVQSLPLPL
# telomerase, sequence (Q9NY12 whole entry partner): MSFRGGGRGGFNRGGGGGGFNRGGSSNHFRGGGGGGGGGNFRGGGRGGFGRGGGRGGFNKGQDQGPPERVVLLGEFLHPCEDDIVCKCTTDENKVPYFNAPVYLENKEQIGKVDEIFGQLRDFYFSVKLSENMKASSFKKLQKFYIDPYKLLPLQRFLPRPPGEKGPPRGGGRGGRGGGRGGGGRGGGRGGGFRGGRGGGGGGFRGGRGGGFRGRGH
# telomerase, sequence (Q9BUR4 whole entry partner): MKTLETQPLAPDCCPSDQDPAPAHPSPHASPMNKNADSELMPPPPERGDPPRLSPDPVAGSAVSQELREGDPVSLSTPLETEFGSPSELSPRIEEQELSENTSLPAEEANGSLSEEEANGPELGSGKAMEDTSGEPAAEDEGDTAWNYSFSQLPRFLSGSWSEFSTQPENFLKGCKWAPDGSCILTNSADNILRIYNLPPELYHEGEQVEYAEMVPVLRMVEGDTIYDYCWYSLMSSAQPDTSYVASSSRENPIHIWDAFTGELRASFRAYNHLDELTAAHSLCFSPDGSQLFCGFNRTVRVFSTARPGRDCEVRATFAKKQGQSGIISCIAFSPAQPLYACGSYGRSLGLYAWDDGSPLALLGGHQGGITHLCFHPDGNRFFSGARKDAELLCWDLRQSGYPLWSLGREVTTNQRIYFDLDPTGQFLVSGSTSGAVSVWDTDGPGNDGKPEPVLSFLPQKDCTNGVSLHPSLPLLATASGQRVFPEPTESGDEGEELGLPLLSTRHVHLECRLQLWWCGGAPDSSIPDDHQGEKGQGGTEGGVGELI
molecule,measurement,setting,value
B1,inhibition of telomerase activity by cisplatin in 24.2 cell line,telomerase,no inhibition was observed
same,hTERT expression after cisplatin in pLNCX 24.2 cells,hTERT,no reduction in expression in the pLNCX 24.2 cells until 7 days of treatment
